According to article PMC7074700:

Target: Helicobacter pylori CbpA, wild type, carboxyl-terminal His-tagged (H. pylori (strain G27))
Test: cross-linking; 5 uM purified protein with 0, 0.0025, 0.005 and 0.01% glutaraldehyde in 1x binding buffer (10 mM Tris-HCl pH 8.0, 50 mM NaCl, 10 mM KCl, 5 mM MgCl2, 0.1 mM DTT, 0.01% NP40), 1 hour at 25 °C; SDS-PAGE, Coomassie staining

stoichiometry N: 2
Substance: Helicobacter pylori CbpA, wild type, carboxyl-terminal His-tagged (natural protein)
